Measurements published in publication PMC1283526.

Biological target: T1, GST-ELAV (UniProt P16914 76-483)
T1 sequence: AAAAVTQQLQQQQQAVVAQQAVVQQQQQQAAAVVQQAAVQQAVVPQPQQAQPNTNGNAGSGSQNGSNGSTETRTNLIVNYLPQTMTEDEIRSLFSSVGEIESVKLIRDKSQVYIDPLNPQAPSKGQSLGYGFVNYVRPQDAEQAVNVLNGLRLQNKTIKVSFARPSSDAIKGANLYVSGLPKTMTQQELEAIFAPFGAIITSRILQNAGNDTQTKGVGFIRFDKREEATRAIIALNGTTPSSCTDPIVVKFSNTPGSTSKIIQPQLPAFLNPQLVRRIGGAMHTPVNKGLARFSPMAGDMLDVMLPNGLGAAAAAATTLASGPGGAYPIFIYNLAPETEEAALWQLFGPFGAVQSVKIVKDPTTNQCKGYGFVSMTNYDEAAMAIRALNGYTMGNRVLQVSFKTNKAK
Test: competition

AUUUUUAUUUGUUAUUUUUU (ssRNA) [SSE 20mer]
binding result: binds
